Consider eight molecules from US20090317391A1 (Novartis, published 2009).

Series [1] concerns tm-PTPε (wild type, stably expressed in NIH/3T3 and Rat-1 cells).
For series [2], the system named is tm-PTPε A24C mutant, V5-tagged.
The test system of series [3] is tm-PTPε Q26C mutant, V5-tagged.
Series [4] deals with the molecule itself. Kind of series: V5 immunoblot, non-reducing conditions (figure legend; self-dimer). The procedure: Whole cell lysates were prepared from NIH/3T3 transiently transfected with vectors expressing either a V5-tagged wild-type PTPRε or PTPRε P20C, D21C, P22C, G23C, A24C, S25C, Q26C mutants, as well as from empty vector control cell lines. Cell lysis was carried out in the presence of 20 mM iodacetamide. Iodacetamide inhibits glutathione reductase, the enzyme responsible for disulfide bridge reduction in vivo, to minimize dimmer cleavage. All the constructs encode a V5-tagged protein. Samples were analyzed in reducing and non-reducing conditions and immunoblotted, for wild-type or tm-PTPε mutant protein expression by probing with a V5-specific antibody. All the proteins are expressed as monomers in reducing conditions (FIG. 20A). In non-reducing conditions, however, while wild-type tm-PTPε was unable to form a dimer (because it is lacking cysteines in its extracellular domain), all tm-PTPε mutants formed dimers (FIG. 20B).

In the case of Src, the “Src-Y529 phosphorylation levels (immunoblot with a Src-Y529 phospho-specific antibody)” value in series [1] was “tm-PTPε overexpression cause Src-Tyr-529 dephosphorylation in NIH/3T3 and Rat-1 cells”; in series [2], “Both clones of tm-PTPε A24C mutant were unable to dephosphorylate Src-Y529”; in series [3], “Like wild-type tm-PTPε, PTPRεQ26C mutant was able to dephosphorylate Src-Y529”.

B1: tm-PTPε P20C mutant, V5-tagged (receptor, not shown: small tags and cut ends)
chain: LRGNETTADSNETTTTSGPCDPGASQPLLAWLLLPLLLLLLVLLLAAYFFRFRKQRKAVVSTSDKKMPNGILEEQEQQRVMLLSRSPSGPKKYFPIPVEHLEEEIRIRSADDCKQFREEFNSLPSGHIQGTFELANKEENREKNRYPNILPNDHSRVILSQLDGIPCSDYINASYIDGYKEKNKFIAAQGPKQETVNDFWRMVWEQKSATIVMLTNLKERKEEKCHQYWPDQGCWTYGNIRVCVEDCVVLVDYTIRKFCIQPQLPDGCKAPRLVSQLHFTSWPDFGVPFTPIGMLKFLKKVKTLNPVHAGPIVVHCSAGVGRTGTFIVIDAMMAMMHAEQKVDVFEFVSRIRNQRPQMVQTDMQYTFIYQALLEYYLYGDTELDVSSLEKHLQTMHGTTTHFDKIGLEEEFRKLTNVRIMKENMRTGNLPANMKKARVIQIIPYDFNRVILSMKRGQEYTDYINASFIDGYRQKDYFIATQGPLAHTVEDFWRMIWEWKSHTIVMLTEVQEREQDKCYQYWPTEGSVTHGEITIEIKNDTLSEAISIRDFLVTLNQPQARQEEQVRVVRQFHFHGWPEIGIPAEGKGMIDLIAAVQKQQQQTGNHPITVHCSAGAGRTGTFIALSNILERVKAEGLLDVFQAVKSLRLQRPHMVQTLEQYEFCYKVVQDFIDIFSDYANFK
notes: Transiently expressed in NIH/3T3 cells; also called PTPRε P20C
As for B1, the binding result in series [4] is on record as “binds”.

B2: tm-PTPε Q26C mutant, V5-tagged (receptor, not shown: small tags and cut ends)
chain: LRGNETTADSNETTTTSGPPDPGASCPLLAWLLLPLLLLLLVLLLAAYFFRFRKQRKAVVSTSDKKMPNGILEEQEQQRVMLLSRSPSGPKKYFPIPVEHLEEEIRIRSADDCKQFREEFNSLPSGHIQGTFELANKEENREKNRYPNILPNDHSRVILSQLDGIPCSDYINASYIDGYKEKNKFIAAQGPKQETVNDFWRMVWEQKSATIVMLTNLKERKEEKCHQYWPDQGCWTYGNIRVCVEDCVVLVDYTIRKFCIQPQLPDGCKAPRLVSQLHFTSWPDFGVPFTPIGMLKFLKKVKTLNPVHAGPIVVHCSAGVGRTGTFIVIDAMMAMMHAEQKVDVFEFVSRIRNQRPQMVQTDMQYTFIYQALLEYYLYGDTELDVSSLEKHLQTMHGTTTHFDKIGLEEEFRKLTNVRIMKENMRTGNLPANMKKARVIQIIPYDFNRVILSMKRGQEYTDYINASFIDGYRQKDYFIATQGPLAHTVEDFWRMIWEWKSHTIVMLTEVQEREQDKCYQYWPTEGSVTHGEITIEIKNDTLSEAISIRDFLVTLNQPQARQEEQVRVVRQFHFHGWPEIGIPAEGKGMIDLIAAVQKQQQQTGNHPITVHCSAGAGRTGTFIALSNILERVKAEGLLDVFQAVKSLRLQRPHMVQTLEQYEFCYKVVQDFIDIFSDYANFK
notes: Transiently expressed in NIH/3T3 cells (dimer blot) and stably in Rat-1 clones #1 and #30 (Src-Y529 blot); also called PTPRε Q26C; PTPRεQ26C
For the molecule B2, the binding result in series [4] is “binds”.

B3: tm-PTPε D21C mutant, V5-tagged (receptor, not shown: small tags and cut ends)
chain: LRGNETTADSNETTTTSGPPCPGASQPLLAWLLLPLLLLLLVLLLAAYFFRFRKQRKAVVSTSDKKMPNGILEEQEQQRVMLLSRSPSGPKKYFPIPVEHLEEEIRIRSADDCKQFREEFNSLPSGHIQGTFELANKEENREKNRYPNILPNDHSRVILSQLDGIPCSDYINASYIDGYKEKNKFIAAQGPKQETVNDFWRMVWEQKSATIVMLTNLKERKEEKCHQYWPDQGCWTYGNIRVCVEDCVVLVDYTIRKFCIQPQLPDGCKAPRLVSQLHFTSWPDFGVPFTPIGMLKFLKKVKTLNPVHAGPIVVHCSAGVGRTGTFIVIDAMMAMMHAEQKVDVFEFVSRIRNQRPQMVQTDMQYTFIYQALLEYYLYGDTELDVSSLEKHLQTMHGTTTHFDKIGLEEEFRKLTNVRIMKENMRTGNLPANMKKARVIQIIPYDFNRVILSMKRGQEYTDYINASFIDGYRQKDYFIATQGPLAHTVEDFWRMIWEWKSHTIVMLTEVQEREQDKCYQYWPTEGSVTHGEITIEIKNDTLSEAISIRDFLVTLNQPQARQEEQVRVVRQFHFHGWPEIGIPAEGKGMIDLIAAVQKQQQQTGNHPITVHCSAGAGRTGTFIALSNILERVKAEGLLDVFQAVKSLRLQRPHMVQTLEQYEFCYKVVQDFIDIFSDYANFK
notes: Transiently expressed in NIH/3T3 cells; also called PTPRε D21C
With B3, in series [4], the binding result was “binds”.

B4: tm-PTPε P22C mutant, V5-tagged (receptor, not shown: small tags and cut ends)
chain: LRGNETTADSNETTTTSGPPDCGASQPLLAWLLLPLLLLLLVLLLAAYFFRFRKQRKAVVSTSDKKMPNGILEEQEQQRVMLLSRSPSGPKKYFPIPVEHLEEEIRIRSADDCKQFREEFNSLPSGHIQGTFELANKEENREKNRYPNILPNDHSRVILSQLDGIPCSDYINASYIDGYKEKNKFIAAQGPKQETVNDFWRMVWEQKSATIVMLTNLKERKEEKCHQYWPDQGCWTYGNIRVCVEDCVVLVDYTIRKFCIQPQLPDGCKAPRLVSQLHFTSWPDFGVPFTPIGMLKFLKKVKTLNPVHAGPIVVHCSAGVGRTGTFIVIDAMMAMMHAEQKVDVFEFVSRIRNQRPQMVQTDMQYTFIYQALLEYYLYGDTELDVSSLEKHLQTMHGTTTHFDKIGLEEEFRKLTNVRIMKENMRTGNLPANMKKARVIQIIPYDFNRVILSMKRGQEYTDYINASFIDGYRQKDYFIATQGPLAHTVEDFWRMIWEWKSHTIVMLTEVQEREQDKCYQYWPTEGSVTHGEITIEIKNDTLSEAISIRDFLVTLNQPQARQEEQVRVVRQFHFHGWPEIGIPAEGKGMIDLIAAVQKQQQQTGNHPITVHCSAGAGRTGTFIALSNILERVKAEGLLDVFQAVKSLRLQRPHMVQTLEQYEFCYKVVQDFIDIFSDYANFK
notes: Transiently expressed in NIH/3T3 cells; also called PTPRε P22C
On to B4, for which the binding result in series [4] is reported as “binds”.

B5: tm-PTPε A24C mutant, V5-tagged (receptor, not shown: small tags and cut ends)
chain: LRGNETTADSNETTTTSGPPDPGCSQPLLAWLLLPLLLLLLVLLLAAYFFRFRKQRKAVVSTSDKKMPNGILEEQEQQRVMLLSRSPSGPKKYFPIPVEHLEEEIRIRSADDCKQFREEFNSLPSGHIQGTFELANKEENREKNRYPNILPNDHSRVILSQLDGIPCSDYINASYIDGYKEKNKFIAAQGPKQETVNDFWRMVWEQKSATIVMLTNLKERKEEKCHQYWPDQGCWTYGNIRVCVEDCVVLVDYTIRKFCIQPQLPDGCKAPRLVSQLHFTSWPDFGVPFTPIGMLKFLKKVKTLNPVHAGPIVVHCSAGVGRTGTFIVIDAMMAMMHAEQKVDVFEFVSRIRNQRPQMVQTDMQYTFIYQALLEYYLYGDTELDVSSLEKHLQTMHGTTTHFDKIGLEEEFRKLTNVRIMKENMRTGNLPANMKKARVIQIIPYDFNRVILSMKRGQEYTDYINASFIDGYRQKDYFIATQGPLAHTVEDFWRMIWEWKSHTIVMLTEVQEREQDKCYQYWPTEGSVTHGEITIEIKNDTLSEAISIRDFLVTLNQPQARQEEQVRVVRQFHFHGWPEIGIPAEGKGMIDLIAAVQKQQQQTGNHPITVHCSAGAGRTGTFIALSNILERVKAEGLLDVFQAVKSLRLQRPHMVQTLEQYEFCYKVVQDFIDIFSDYANFK
notes: Transiently expressed in NIH/3T3 cells (dimer blot) and stably in Rat-1 clones #8 and #26 (Src-Y529 blot); also called PTPRε A24C; PTPRε.A24C
Take B5: in series [4], the binding result is listed as “binds”.

B6: tm-PTPε G23C mutant, V5-tagged (receptor, not shown: small tags and cut ends)
chain: LRGNETTADSNETTTTSGPPDPCASQPLLAWLLLPLLLLLLVLLLAAYFFRFRKQRKAVVSTSDKKMPNGILEEQEQQRVMLLSRSPSGPKKYFPIPVEHLEEEIRIRSADDCKQFREEFNSLPSGHIQGTFELANKEENREKNRYPNILPNDHSRVILSQLDGIPCSDYINASYIDGYKEKNKFIAAQGPKQETVNDFWRMVWEQKSATIVMLTNLKERKEEKCHQYWPDQGCWTYGNIRVCVEDCVVLVDYTIRKFCIQPQLPDGCKAPRLVSQLHFTSWPDFGVPFTPIGMLKFLKKVKTLNPVHAGPIVVHCSAGVGRTGTFIVIDAMMAMMHAEQKVDVFEFVSRIRNQRPQMVQTDMQYTFIYQALLEYYLYGDTELDVSSLEKHLQTMHGTTTHFDKIGLEEEFRKLTNVRIMKENMRTGNLPANMKKARVIQIIPYDFNRVILSMKRGQEYTDYINASFIDGYRQKDYFIATQGPLAHTVEDFWRMIWEWKSHTIVMLTEVQEREQDKCYQYWPTEGSVTHGEITIEIKNDTLSEAISIRDFLVTLNQPQARQEEQVRVVRQFHFHGWPEIGIPAEGKGMIDLIAAVQKQQQQTGNHPITVHCSAGAGRTGTFIALSNILERVKAEGLLDVFQAVKSLRLQRPHMVQTLEQYEFCYKVVQDFIDIFSDYANFK
notes: Transiently expressed in NIH/3T3 cells; also called PTPRε G23C
On to B6, for which the binding result in series [4] is on record as “binds”.

B7: tm-PTPε S25C mutant, V5-tagged (receptor, not shown: small tags and cut ends)
chain: LRGNETTADSNETTTTSGPPDPGACQPLLAWLLLPLLLLLLVLLLAAYFFRFRKQRKAVVSTSDKKMPNGILEEQEQQRVMLLSRSPSGPKKYFPIPVEHLEEEIRIRSADDCKQFREEFNSLPSGHIQGTFELANKEENREKNRYPNILPNDHSRVILSQLDGIPCSDYINASYIDGYKEKNKFIAAQGPKQETVNDFWRMVWEQKSATIVMLTNLKERKEEKCHQYWPDQGCWTYGNIRVCVEDCVVLVDYTIRKFCIQPQLPDGCKAPRLVSQLHFTSWPDFGVPFTPIGMLKFLKKVKTLNPVHAGPIVVHCSAGVGRTGTFIVIDAMMAMMHAEQKVDVFEFVSRIRNQRPQMVQTDMQYTFIYQALLEYYLYGDTELDVSSLEKHLQTMHGTTTHFDKIGLEEEFRKLTNVRIMKENMRTGNLPANMKKARVIQIIPYDFNRVILSMKRGQEYTDYINASFIDGYRQKDYFIATQGPLAHTVEDFWRMIWEWKSHTIVMLTEVQEREQDKCYQYWPTEGSVTHGEITIEIKNDTLSEAISIRDFLVTLNQPQARQEEQVRVVRQFHFHGWPEIGIPAEGKGMIDLIAAVQKQQQQTGNHPITVHCSAGAGRTGTFIALSNILERVKAEGLLDVFQAVKSLRLQRPHMVQTLEQYEFCYKVVQDFIDIFSDYANFK
notes: Transiently expressed in NIH/3T3 cells; also called PTPRε S25C
Take B7: the binding result in series [4] is listed as “binds”.
